# PMC8299219 (Cell, 2021)
# Residue numbers refer to the chain shown, from its start.
# B1: C83B10 (antibody, V domains shown)
# VH: QVQLVESGGGVVQPGRSLRLSCAASGFTFSIYAIHWVRQAPGKGLEWVALISYDGSNKYYADSVKGRFTISRDNSKNTLYLQMNSLRAEDTAVYYCARARGGSYSDAFDIWGQGTMVTVSS
# VL: not shown
# B2: G32Q6 (antibody, V domains shown)
# VH: EVQLLESGGGLVQPGGSLRLSCAASGFTFSNYAMNWVRQAPGKGLEWVSGISGNGVNTFYADSVKGRFTISRDNSRNTLYLQMNSLRAEDTAVYYCAKAIQTYSNYVLGADYWGQGTLVTVSS
# VL: QSALTQPRSVSGSPGQSVTISCTGTNSDVGNYNFVSWYQQHPGRAPKLMIYDVSKRPSGVPDRFSGSKSDNTASLTISGLQAEDQADYYCCSYATSYTFRVVFGGGTKLTVL
# B3: G32B2 (antibody, V domains shown)
# VH: QLQLQESGPGLVKPSETLSLTCTVSGGSISSSSYYWGWIRQPPGKGLEWIGSIYYSGSTYYNPSLKSRVTISVDTSKNQFSLKLSSVTAADTAVYYCARTVASYYDSSAYLTLGYFDYWGQGTLVTVSS
# VL: SYELTQPPSVSVSPGQTARITCSGDALPKKYAYWYQQKSGQAPVLVIYEDSKRPSGIPERFSGSSSGTMATLTISGAQVEDEADYYCYSTDSSGNHNYVFGTGTKVTVL
# B4: G32M2 (antibody, V domains shown)
# VH: QVQLVESGGGVVQPGRSLRLSCAASGFTFSSYAMHWVRQAPGKGLEWVAVISYDGNNKYYADSVKGRFTISRDNSKNTLYLQMNSLRAEDTAMYYCARAKGGGYYYGMDVWGQGTTVTVSS
# VL: SYELTQPPSVSVAPGQTARITCGGNNIGSKSVHWYQQKPGQAPVLVVYDDSDRPSGIPERFSGSNSGNTATLTISRVEAGDEADYYCQVWDSSSDPYWVFSGGTKLTVL
# B5: C81C3 (antibody, V domains shown)
# VH: EVQLVQSGAEVKKPGESLRISCKGSGYSFTSYWISWVRQMPGKGLEWMGRIDPSDSYTNYSPSFQGHVTISADKSISTAYLQWSSLKASDTAMYYCAIHGYYDSSGYYLPHGFDIWGQGTMVTVSS
# VL: B4 VL with Q16K, K30T, S51G, Y97N, S101G
# B6: C7A2 (antibody, V domains shown)
# VH: EVQLLESGGGLVQPGGSLRLSCAASGFIFSNYVVSWVRQAPGKGLEWVSGISVNGDTTFYADSVKGRFTISRDNSKNTLYLQMNSLRAEDTAVYYCAKVRGYCSGGRGCMDVWGQGTTVTVSS
# VL: DIQLTQSPSSLSASVGDRVTITCQASQDIGNTLAWYQQKPGKAPNLLIYDASSLQSGVPSRFSGSVSGTDFTLTITSLQLEDFATYYCQQFNTYPALTFGGGTKVEIK
# B7: C7I5 (antibody, V domains shown)
# VH: B6 VH
# VL: B6 VL with A13P, Q24R, S65T, L80P, Y87F
# B8: G32L8 (antibody, V domains shown)
# VH: EVQLVQSGAEVKKPGESLKISCKGSGYSFTSYWIGWVRQMPGKGLEWMGIIYPGDSDTRYSPSFQGQVTISADKSISTAYLQWSSLKASDTAMYYCARRYAVYSSGWYYWYFDLWGRGTLVTVSS
# VL: not shown
# B9: G32C5 (antibody, V domains shown)
# VH: QVQLVESGGGVVQPGRSLRLSCAASGFTFSSYAMHWVRQAPGKGLEWVAVISYDGSNKYYADSVKGRFTISRDNSKNTLYLQMNSLRAEDTAVYYCARGKSGSYFGSFDYWGQGTLVTVSS
# VL: not shown
# B10: C81H4 (antibody, V domains shown)
# VH: B1 VH with I31S, A33G, I34M, L50V, Y80C, R98K, A99G, S105Y
# VL: not shown
# B11: C81E9 (antibody, V domains shown)
# VH: QVQLVESGGGVVQPGRSLRLSCAASGFTFSSYAMHWVRQAPGKGLEWVAVISYDGSNKYYADSVKGRFTISRDNSKNTLFLQMNSLRPEDTAVYYCIAARNYYYMDVWGKGTTVTVSS
# VL: not shown
# B12: C30B10 (antibody, V domains shown)
# VH: QVQLVESGGGVVQPGRSLRLSCAASGFTFSSYGMHWVRQAPGKGLEWVAVIWYDGSNKYYADSVKGRFTISRDNSKNTLYLQMNSLRAEDTAVYYCARDYPFSGSYYGDAFDIWGQGTMVTVSS
# VL: SYELTQPPSVSVSPGQTARITCSGDALPKKYAYWYQQKSGQAPVLVIYEDSKRPSGIPERFSGSSSGTMATLTISGAQVEDEADYYCYSTDSSGNRWVFGGGTKLTVL
# B13: G32B4 (antibody, V domains shown)
# VH: not shown
# VL: B12 VL with R96L
# B14: C53F12 (antibody, V domains shown)
# VH: QVQLVQSGAEVKKPGSSVKVSCKASGGTFSSYAISWVRQAPGQGLEWMGGIIPIFGTANYAQKFQGRVTITADESTSTAYMELSSLRSEDTAVYYCARMYYYVSGSYHYFDYWGQGTLVTVSS
# VL: EIVLTQSPATLSLSPGERATLSCRASQSVSSYLAWYQQKPGQAPRLLIYDASNRATGIPARFSGSGSGTDFTLTISSLEPEDFAVYYCQQRSNWPPALTFGGGTKVEIK
# B15: C102B1 (antibody, V domains shown)
# VH: QVQLVQSGAEVKKPGSSVKVSCKASGGTFSSYAISWVRQAPGQGLEWMGGIIPIFGTANYAQKFQGRVTITADESTSTAYMELSSLRSEDTAVYCCARDRGYCTGGVCSNYYYGIDVWGQGTTVTVSS
# VL: B14 VL with A97S, L98Y, G102Q, V106L
# B16: C93E12 (antibody, V domains shown)
# VH: QVQLVEAGGGVVQPGTSLRLSCAASGFTFSNYAIQWVRQAPGKGPEWVALISYDGSNKYYADPVKGRFTLSRDNSKNTLYLQMNSLRAEDTAVYYCARGIRGGYNDAFDIWGQGTMVTVSS
# VL: DIQLTQSPSFLSASVGDRVTITCRASQGISSYLTWYQQKPGKAPKLLIYAASTLQSGVPSRFSGSGSGTEFTLTISSLQPEDFATYYCQQVTSYPITFGQGTRLEIK
# B17: C12E6 (antibody, V domains shown)
# VH: QVQLQESGSGLVKPSQTLSLTCAVSGGSISSGGYSWSWIRQPPGKGLEWIGYIYHSGSTYYNPSLKSRVTISVDRSKNQFSLKLSSVTAADTAVYYCARSGFLEWLRRVDAFDIWGQGTMVTVSS
# VL: QSALTQPASVSGSPGQSITISCTGTSSDVGGYNYVSWYQQHPGKAPKLMIYDVSNRPSGVSNRFSASKSGNTASLTISGLQAEDEADYYCSSYTSSSTRVFGGGTKLTVL
# B18: C882C6 (antibody, V domains shown)
# VH: QVQLVESGGGVVQPGRSLRLSCAASGFTFSNFAIHWVRQAPGKGLEWVAVVSYDGGNKYYADSVKGRFTISRDNSKNTLYLQMNSLRAEDTSVYYCARSGSGNYYGWFDPWGQGTLVTVSS
# VL: B17 VL with G31S, Y34L, D52E, V53G, N55K, A66G, S91C, T94A, S95G, R99W
# B19: C30A8 (antibody, V domains shown)
# VH: QVQLVESGGGLVKPGGSLRLSCAASGFTFSDSYMSWIRQAPGKGLEWVSYISSSSSYTNYADSVKGRFTISRDNAKNSLYLQMNSLRAEDTAVYYCARDRVPPYSSGWYYFDYWGQGTLVTVSS
# VL: B17 VL with D52E, A66G, G70D, R99Y, G103T, L107V
# B20: C163D5 (antibody, V domains shown)
# VH: EVQLVESGGGLVQPGGSLRLSCAASGFTFSSYWMHWVRQAPGKGLVWVSRTNSDGSSTNYADSVKGRFTISRDNAKNTLYLQMNSLRAEDTAVYYCARPQFYVWGSDRADYGMDVWGQGTTVTVSS
# VL: B17 VL with Y34S, D52E, A66G, T94R, R99L
# B21: C53E12 (antibody, V domains shown)
# VH: QVQLVESGGGVVQPGRSLRLSCAASGFTFSSYGMHWVRQAPGKGLEWVAVISYDGSNKYYVDSVKGRFTISRDNSKNTLYLQMNSLRAEDTAVYYCAKGTEIVVVPADYFDYWGQGTLVTVSS
# VL: EIVLTQSPATLSLSPGERATLSCRASQSVSSYLAWYQQKPGQAPRLVIYDASNRATGIPARFSGSGSGTDFTLTISSLEPEDFAVYYCQQRSNWPGFTFGPGTKVDIK
# B22: C102A5 (antibody, V domains shown)
# VH: QVQLVESGGGVVQPGRSLRLSCAASGFTFSTYAMHWVRQAPGKGLEWVAVISYDGSNKYYADSVKGRFTISRDNSKNTLYLQMNSLRAEDTAVYYCARDLGTYRWFDPWGQGTLVTVSS
# VL: DIQMTQSPSSVSASVGDRVTITCRASQGISSWLAWYQQKPGKAPKLLIYAASSLQSGVPSRFSGSGSGTDFTLTISSLQSEDFATYYCQQANSFPSFTFGPGTKVEIK
# B23: C12B5 (antibody, V domains shown)
# VH: B22 VH with T31S, A33G, S52W, G101A, T102V, Y103A, R104T, W105Q, F106N, P108Y
# VL: B12 VL with S51G
# B24: C12I7 (antibody, V domains shown)
# VH: QVQLQESDPGLVQPSETLSLTCTVSRGSISSYYWSWIRQPPGKGLEWIGYIYYSGSTNYNPSLKSRVTISVDTSKNQFSLKLSSVTAADTAVYYCARVGYYDSSAYLKLGSIDYWGQGILVTVSS
# VL: not shown
# B25: C12B8 (antibody, V domains shown)
# VH: QVQLVESGGGVVQPGRSLGLSCAASGFTFSSYAMHWVRQAPGKGLEWVAVISYDGSNKADSVKGRFTISRDNSNNTLYLQMNSLRAEDTAVYYCAREGVVVTAPLDYWGQGTLVTVSS
# VL: not shown
# Molecular target: SARS-CoV-2 S ectodomain trimer, prefusion-stabilized, 2P variant (Wrapp et al., 2020) (SARS-CoV-2, Wuhan-Hu-1, UniProt P0DTC2, stabilised)
row,Binder,binding result
1,B1,binds
2,B2,binds
3,B3,binds
4,B4,binds
5,B5,binds
6,B6,binds
7,B7,binds
8,B8,binds
9,B9,binds
10,B10,binds
11,B11,binds
12,B12,binds
13,B13,binds
14,B14,binds
15,B15,binds
16,B16,binds
17,B17,binds
18,B18,binds
19,B19,binds
20,B20,binds
21,B21,binds
22,B22,binds
23,B23,binds
24,B24,binds
25,B25,binds
